Substrate: C[N+](C)(C)CCO
Experiment: cells, lysate or membranes
Type: cell-based, Clonorchis sinensis
Conditions: ND96 (96 mM Na+), pH 7.4, 22–25°C, sodium-dependent, labelled compound

B1: CsChT (Clonorchis sinensis) (protein)
chain: MLYIPGLIAIIIFYLLILLVGFWAARKSRSNPAGTTETEDVMLAGRNIGLIVGIFTMTATWVGGGYINGTAENTFRPGQGLVWCQAPIGYAASLVLGGFFFAKRMRSLAFVTMLDPFQNKYGERMCGLLFIPALLGETFWSAAILSALGATLGVIVELDHTTSVIISACIALLYTLFGGLYSVAYTDVVQLFCIFVGLWISLPFALLNKATVPISQTWDRWKGSVEAVDAGIYVDNLLMLTFGGIPWQVYFQRVLSCRTAKQAQILSFVAAIGCLIMALPSVLIGAVGASTDWNMTGYGRAENFTIPDGEAKLVLPLVLRYLCPVWVSFVGLGAVSAAVMSSSDSSVLSAASMFARNVVKPVFWQSATERQIIWVMRASIFGVGALSCLLAICIQSIYGLWYLCSDLIYVILFPQLICVLYVRFSNTYGSLIGYILGLFVRLTSGEALLGLPALFKYPYFYDDPQDFYQRFPCKTFAMLCTLVVTIVVSYFTDLYFRKDSKRLKYDFFHCYKQRASASGSIHIGNRFNRPSIRTAKLPIQVPEVDSENADVDENSNKNSNTLDNNKPLA
For B1, the Km was 8.3 µM.

— paper PMC10693965
